Test results from the RNAGym collection of RNA variant scans (doi:10.1093/molbev/msab373).

B1: Azoarcus group I ribozyme (parent)
chain: GUGCCUUGCGCCGGGAAACCACGCAAGGGAUGGUGUCAAAUUCGGCGAAACCUAAGCGCCCGCCCGGGCGUAUGGCAACGCCGAGCCAAGCUUCGGCGCCUGCGCCGAUGAAGGUGUAGAGACUAGACGGCACCCACCUAAGGCAAACGCUAUGGUGAAGGCAUAGUCCAGGGAGUGGCGAAAGUCACACAAACCGG

Variants of: B1
Test: reverse-splicing fitness (ratio to wild type); higher = more active; in vitro selection; Mg2+ level not given
Procedure, shortened: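 An in vitro group I ribozyme library with randomized positions was T7-transcribed and gel-purified. In triplicate, 10 pmol RNA in EPPS pH 7.5 was reacted with 50 pmoles of a 30-nt RNA substrate for 1 h at 37 °C across several added MgCl2 levels (1–48 mM), then stopped with EDTA. Products were reverse transcribed from a substrate-complementary primer, PCR-amplified and sequenced (HiSeq 4000). Fitness is a variant's read proportion after selection over that before, normalised to wild type.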

Variant	reverse-splicing fitness
GUGCCUUGCGCCGGGAAACCACGCAAGGGAUGGUGUCAAAUUCGGCGAAACCUAAGCGCCCGCCCGGGCGUAUGGCAACGCCGAGCCAAGCUUCGGCGCCUGCGCCGAUGUAGGUGUAGAGACUAGACGGCACCCACCUAAGGCUAACGAUAUGGUGAAGGCAUAGUCGAGGGAGCGGCGAAAGUCACACAAACCGG [A111U A145U C150A C169G U176C]	0.0169
GUGCCUUGCGCCGGGAAACCACGCAAGGGAUGGUGUCAAAUUCGGCGAAACCUAAGCGCCCGCCCGGGCGUAUGGCAACGCCGAGCCAAGCUUCGGCGCCUGCGCCGAUGUAGGUGUAGAGACUAGACGGCACCCACCUAAGGCUAACGAUAUGGUGAAGGCAUAGUCGAGGGAGGGGCGAAAGUCACACAAACCGG [A111U A145U C150A C169G U176G]	0.0065
GUGCCUUGCGCCGGGAAACCACGCAAGGGAUGGUGUCAAAUUCGGCGAAACCUAAGCGCCCGCCCGGGCGUAUGGCAACGCCGAGCCAAGCUUCGGCGCCUGCGCCGAUGUAGGUGUAGAGACUAGACGGCACCCACCUAAGGCUAACGAUAUGGUGAAGGCAUAGUCUAGGGAGUGGCGAAAGUCACACAAACCGG [A111U A145U C150A C169U]	0.018
GUGCCUUGCGCCGGGAAACCACGCAAGGGAUGGUGUCAAAUUCGGCGAAACCUAAGCGCCCGCCCGGGCGUAUGGCAACGCCGAGCCAAGCUUCGGCGCCUGCGCCGAUGUAGGUGUAGAGACUAGACGGCACCCACCUAAGGCUAACGAUAUGGUGAAGGCAUAGUCUAGGGAGAGGCGAAAGUCACACAAACCGG [A111U A145U C150A C169U U176A]	0.0151
GUGCCUUGCGCCGGGAAACCACGCAAGGGAUGGUGUCAAAUUCGGCGAAACCUAAGCGCCCGCCCGGGCGUAUGGCAACGCCGAGCCAAGCUUCGGCGCCUGCGCCGAUGUAGGUGUAGAGACUAGACGGCACCCACCUAAGGCUAACGAUAUGGUGAAGGCAUAGUCUAGGGAGCGGCGAAAGUCACACAAACCGG [A111U A145U C150A C169U U176C]	0.0162
GUGCCUUGCGCCGGGAAACCACGCAAGGGAUGGUGUCAAAUUCGGCGAAACCUAAGCGCCCGCCCGGGCGUAUGGCAACGCCGAGCCAAGCUUCGGCGCCUGCGCCGAUGUAGGUGUAGAGACUAGACGGCACCCACCUAAGGCUAACGAUAUGGUGAAGGCAUAGUCUAGGGAGGGGCGAAAGUCACACAAACCGG [A111U A145U C150A C169U U176G]	0.00626
GUGCCUUGCGCCGGGAAACCACGCAAGGGAUGGUGUCAAAUUCGGCGAAACCUAAGCGCCCGCCCGGGCGUAUGGCAACGCCGAGCCAAGCUUCGGCGCCUGCGCCGAUGUAGGUGUAGAGACUAGACGGCACCCACCUAAGGCUAACGAUAUGGUGAAGGCAUAGUCCAGGGAGAGGCGAAAGUCACACAAACCGG [A111U A145U C150A U176A]	0.192
GUGCCUUGCGCCGGGAAACCACGCAAGGGAUGGUGUCAAAUUCGGCGAAACCUAAGCGCCCGCCCGGGCGUAUGGCAACGCCGAGCCAAGCUUCGGCGCCUGCGCCGAUGUAGGUGUAGAGACUAGACGGCACCCACCUAAGGCUAACGAUAUGGUGAAGGCAUAGUCCAGGGAGCGGCGAAAGUCACACAAACCGG [A111U A145U C150A U176C]	0.228
GUGCCUUGCGCCGGGAAACCACGCAAGGGAUGGUGUCAAAUUCGGCGAAACCUAAGCGCCCGCCCGGGCGUAUGGCAACGCCGAGCCAAGCUUCGGCGCCUGCGCCGAUGUAGGUGUAGAGACUAGACGGCACCCACCUAAGGCUAACGAUAUGGUGAAGGCAUAGUCCAGGGAGGGGCGAAAGUCACACAAACCGG [A111U A145U C150A U176G]	0.0853
GUGCCUUGCGCCGGGAAACCACGCAAGGGAUGGUGUCAAAUUCGGCGAAACCUAAGCGCCCGCCCGGGCGUAUGGCAACGCCGAGCCAAGCUUCGGCGCCUGCGCCGAUGUAGGUGUAGAGACUAGACGGCACCCACCUAAGGCUAACGGUAUGGUGAAGGCAUAGUCCAGGGAGUGGCGAAAGUCACACAAACCGG [A111U A145U C150G]	0.41
GUGCCUUGCGCCGGGAAACCACGCAAGGGAUGGUGUCAAAUUCGGCGAAACCUAAGCGCCCGCCCGGGCGUAUGGCAACGCCGAGCCAAGCUUCGGCGCCUGCGCCGAUGUAGGUGUAGAGACUAGACGGCACCCACCUAAGGCUAACGGUAUGGUGAAGGCAUAGUCAAGGGAGUGGCGAAAGUCACACAAACCGG [A111U A145U C150G C169A]	0.0102
GUGCCUUGCGCCGGGAAACCACGCAAGGGAUGGUGUCAAAUUCGGCGAAACCUAAGCGCCCGCCCGGGCGUAUGGCAACGCCGAGCCAAGCUUCGGCGCCUGCGCCGAUGUAGGUGUAGAGACUAGACGGCACCCACCUAAGGCUAACGGUAUGGUGAAGGCAUAGUCAAGGGAGAGGCGAAAGUCACACAAACCGG [A111U A145U C150G C169A U176A]	0.0103
GUGCCUUGCGCCGGGAAACCACGCAAGGGAUGGUGUCAAAUUCGGCGAAACCUAAGCGCCCGCCCGGGCGUAUGGCAACGCCGAGCCAAGCUUCGGCGCCUGCGCCGAUGUAGGUGUAGAGACUAGACGGCACCCACCUAAGGCUAACGGUAUGGUGAAGGCAUAGUCAAGGGAGCGGCGAAAGUCACACAAACCGG [A111U A145U C150G C169A U176C]	0.0101
GUGCCUUGCGCCGGGAAACCACGCAAGGGAUGGUGUCAAAUUCGGCGAAACCUAAGCGCCCGCCCGGGCGUAUGGCAACGCCGAGCCAAGCUUCGGCGCCUGCGCCGAUGUAGGUGUAGAGACUAGACGGCACCCACCUAAGGCUAACGGUAUGGUGAAGGCAUAGUCAAGGGAGGGGCGAAAGUCACACAAACCGG [A111U A145U C150G C169A U176G]	0.00591
GUGCCUUGCGCCGGGAAACCACGCAAGGGAUGGUGUCAAAUUCGGCGAAACCUAAGCGCCCGCCCGGGCGUAUGGCAACGCCGAGCCAAGCUUCGGCGCCUGCGCCGAUGUAGGUGUAGAGACUAGACGGCACCCACCUAAGGCUAACGGUAUGGUGAAGGCAUAGUCGAGGGAGUGGCGAAAGUCACACAAACCGG [A111U A145U C150G C169G]	0.011
